The subject of this series is T1, A1S_0316 (putative IclR-type transcription factor) (Acinetobacter baumannii ATCC 17978), ORF:5d858888.
T1 sequence: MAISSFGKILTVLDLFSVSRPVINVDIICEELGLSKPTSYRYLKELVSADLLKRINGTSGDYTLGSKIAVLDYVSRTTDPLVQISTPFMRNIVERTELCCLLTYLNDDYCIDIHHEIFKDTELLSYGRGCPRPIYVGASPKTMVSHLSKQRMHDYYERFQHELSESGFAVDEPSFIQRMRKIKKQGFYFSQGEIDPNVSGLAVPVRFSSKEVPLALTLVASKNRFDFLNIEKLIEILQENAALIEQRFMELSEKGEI
Briefly: competition. The settings on record: EMSA: 5 min at 37 C, 5% native PAGE (40:1), 100 V 1.5 h; binding buffer, salt and pH not stated. On the technique in general: Mobility shift assays separate free from complexed probe on a gel.

With “GGCAAGCGAAACAAAGAAGTTGTTCATATTTGCTAGTTGGGTAAAAAATTACCGAATTACAACGGAAATTGTAAGTAATTTTGTCAATAATTTACTTGATTAAAATTATCAAGCACTTGGAAAGTCTATCAAGTGTTTGTATGATTCAAATGTGAATAGCTTAAAAATAATACTGGGGTAAAAAAATATCTCAGGGGCCAATAAATTTAGGCTGAGCTTGAACAACAATTGTTATCTCTGGAGGATATCCATGAAATTGAGTCGTATTGCACTTGCTACTATGCTTGTTGCTGCTCCATT (double strand) [AbOmpA promoter (AbOmpAp), -231 to +100]”, the binding result was “binds”.

These data come from publication PMC7284552.
